# B1: Golgi to ER traffic protein 2 (Saccharomyces cerevisiae), P40056 (parent)
# chain: MSELTEAEKRRLLRERRQKKFSNGGASSRLNKITGQASSHLNAESPLDAPSAAKTTPPASVHSATPDIKEDSNVAPQLDLLKQLAAMQGQGTGKSTPQDSSTPDLLSLLSSMNTGMPSAEGTPSFGQAAPAAPINQAALDYHDYLLNRLKAWTILVKWVFFLLPYLYLITRPNSSVWPAYAFTQSAWFAPLRNPSNFTRIFATFEFLSISIYYQLLKNVEHKSKIKNLQDTNKLVKLVSLVPEGVIPVANLKGKLITLLQYWDLLSMLITDISFVLIVLGLLTYL
# partner: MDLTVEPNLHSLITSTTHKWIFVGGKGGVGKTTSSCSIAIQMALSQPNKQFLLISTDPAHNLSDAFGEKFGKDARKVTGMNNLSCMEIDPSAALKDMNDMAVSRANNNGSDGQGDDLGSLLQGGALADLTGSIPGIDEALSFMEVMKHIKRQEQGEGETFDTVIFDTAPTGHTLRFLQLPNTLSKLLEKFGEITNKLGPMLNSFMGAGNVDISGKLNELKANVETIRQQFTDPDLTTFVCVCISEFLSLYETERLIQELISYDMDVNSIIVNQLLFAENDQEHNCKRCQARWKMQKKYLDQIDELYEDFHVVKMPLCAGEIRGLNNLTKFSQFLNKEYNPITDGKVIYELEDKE
# B2: Golgi to ER traffic protein 1 (Saccharomyces cerevisiae), P53192 (parent)
# chain: MHWAAAVAIFFIVVTKFLQYTNKYHEKWISKFAPGNELSKKYLAKVKERHELKEFNNSISAQDNYAKWTKNNRKLDSLDKEINNLKDEIQSENKAFQAHLHKLRLLALTVPFFVFKIMYGKTPVYKLSSSTSTLFPTFVSGVWSQGWLYVLLHPLRTISQKWHIMEGKFGASKFDDMALQSVSLGIWVWALMNVINGVEFIVKQLFLTPKMEAPASVETQEEKALDAVDDAIILD
# partner: B1 partner
# Variants of: B1
# Details: with get3_yeast GET3, Q12154
row,effect of a mutation on the interaction,Variant
1,disrupting interaction,R17E

# Variants of: B2
# Details: with get3_yeast GET3, Q12154
row,effect of a mutation on the interaction,Variant
1,disrupting interaction,R73E

# Reference: IntAct's records for PubMed 21866104
